Assay results published in patent US20250051437A1.
Values belong to the binder of their own block, whether it stands above or below them.

Tests used:
[1] = target: monkey (crab-eating macaque) CDH17 fused to moxGFP, overexpressed on HEK293T cells (monkey (crab-eating macaque)); assay: KinExA, cell-based, HEK293T overexpressing monkey CDH17 fusion (FIG. 16)
[2] = target: monkey (crab-eating macaque) CDH17 fused to moxGFP, overexpressed on HEK293T cells (monkey (crab-eating macaque)); assay: KinExA, cell-based, HEK293T monkey CDH17mGFP mass population
[3] = target: monkey (crab-eating macaque) CDH17 fused to moxGFP, overexpressed on HEK293T cells (monkey (crab-eating macaque)); assay: flow cytometry on HEK293T monkey CDH17mGFP mass population, 20 µg/ml
[4] = target: monkey (crab-eating macaque) CDH17 fused to moxGFP, overexpressed on HEK293T cells (monkey (crab-eating macaque)); assay: flow cytometry (BD C6), 1 µg antibody on HEK293T Macaque CDH17 moxGFP cells, labelled anti-human IgG Fc secondary antibody; same antibody on HEK293T Parental: 593.57
[5] = target: monkey (crab-eating macaque) CDH17 fused to moxGFP, overexpressed on HEK293T cells (monkey (crab-eating macaque)); assay: flow cytometry (BD C6), 1 µg antibody on HEK293T Macaque CDH17 moxGFP cells, labelled anti-human IgG Fc secondary antibody; same antibody on HEK293T Parental: 600.46
[6] = target: monkey (crab-eating macaque) CDH17 fused to moxGFP, overexpressed on HEK293T cells (monkey (crab-eating macaque)); assay: flow cytometry (BD C6), 1 µg antibody on HEK293T Macaque CDH17 moxGFP cells, labelled anti-human IgG Fc secondary antibody; same antibody on HEK293T Parental: 817.99

Kd [1]: < 1000 pM | Kd [2]: 657 pM | Cross Reactivity by Flow [3]: 16900 | FL4-H [4]: 145000
B1: humanized anti-CDH17 antibody 07-0646-h7 (antibody, human IgG1, V domains shown)
VH: QVQLVQSGAEVKKPGASVKMSCKASGYTFTSYNMHWVRQAPGQGLEWIGAIYPGNGDTSYAQKFQGRATLTVDTSTSTAYMELSSLRSEDTAVYYCARGRGRYFEYWGQGTTLTVSS
VL: DIQLTQSPSSLSASVGDRVTMTCRASSSVSSSYLHWYQQKPGKAPKLLIYSTSNLASGVPSRFSGSGSGTDYTLTISSVQPEDFATYYCQQYDSSPSTFGQGTKLEIK

Kd [1]: < 1000 pM | Kd [2]: 336 pM | FL4-H [5]: 159000 | Cross Reactivity by Flow [3]: 41300
B2: humanized anti-CDH17 antibody 07-0663-h7 (antibody, human IgG1, kappa, V domains shown)
VH: QVQLVQSGAEVKKPGSSVKISCKVSGYTFTDHTIHWMRQAPGQGLEWIGYIFPRDDIVVYAQKFQGRATLTADKSTSTAYMELSSLRSEDTAVYYCARPPYYYSRNFYFDYWGQGTTLTVSS
VL: DIQMTQSPSSLSASVGDRVTITCRVSSIISSSKLHWYQQKPGKAPKPLIYGTSTLASGVPSRFSGSGSGTDYTLTISSLQPEDFATYYCQQWSNYPFTFGQGTKLEIKR

Kd [1]: < 1000 pM | Kd [2]: 946 pM | FL4-H [6]: 182000 | Cross Reactivity by Flow [3]: 29800
B3: humanized anti-CDH17 antibody 07-0653-h43 (antibody, human IgG1, V domains shown)
VH: QVQLVQSGAEVKKPGASVKVSCKASGYTFTDYYMNWVRQAPGQGLEWMGVIYPYSGGIGYAQKFQGRVTMTVDKSTSTAYMELSSLRSEDTAVYYCARGRGDYFGLFDFWGQGTTVTVSS
VL: DIQLTQSPSSLSASVGDRVTITCRATSSLSYIHWYQQKPGKAPKPLIYEISKLASGVPSRFSGSGSGTDYTLTISSLQPEDFATYYCQQWNYPFTFGQGTKLEIK
